Tests used:
Type in all cases: in vivo, human
[1] = Safety of s.c. IMP321 doses
[2] = system: HER2 negative hormone receptor-positive metastatic breast cancer; assay: AIPAC Phase IIb study: overall survival (OS)
Description: (§1) A Phase IIb clinical study was carried out to investigate the safety and efficacy of the active immunotherapy IMP321 in combination (adjunctive) with paclitaxel chemotherapy in patients with HER2 negative hormone receptor-positive metastatic breast cancer.
(§2) A multicentre, placebo-controlled, double-blind, 1:1 randomised Phase IIb study in female HER2 negative hormone receptor-positive metastatic breast cancer patients was conducted. The study comprised two stages: • stage 1 which was an open-label, safety run-in stage consisting of cohorts 1 and 2 to confirm the recommended Phase II dose (RPTD) of IMP321 in combination with paclitaxel; and • stage 2 which was a placebo-controlled, double-blind randomisation stage, paclitaxel+IMP321 at the RPTD compared to paclitaxel+placebo.
(§3) Paclitaxel+IMP321 at the RPTD of 30 mg (114 patients):
(§4) The chemo-immunotherapy phase consisted of 6 cycles of 4 weeks. Patients received weekly paclitaxel at Days 1, 8 and 15 with adjunctive treatment of study agent (IMP321) on Days 2 and 16 of each 4-week cycle. After completion of the 6-cycle chemo-immunotherapy phase, responding or stable patients received study agent (IMP321) every 4 weeks during the maintenance phase for an additional period of up to 12 injections.
(§5) Active Comparator: Paclitaxel+Placebo (112 patients):
as §4, with “(placebo)” for “(IMP321)”
(§6) Secondary Outcome Measures: • 1. […] Assessment of the overall survival (OS) • 3. […] Evaluation of the time to next treatment • 6. Evaluation of objective response rate (ORR) • 7. Evaluation of stable disease

[3] = AIPAC: quality of life (QoL); details: at week 25
Description: as §6

[4] = Pharmacokinetics of s.c. IMP321 in metastatic renal cell cancer patients
[5] = system: HER2 negative hormone receptor-positive metastatic breast cancer; assay: AIPAC Phase IIb study: best overall response acc. to RECIST 1.1 by BICR (ORR, DCR); details: entire patient population
Description: as §1, §2, §3, §4, §5
The chemo-immunotherapy phase consisted of 6 cycles of 4 weeks. […]

[6] = system: HER2 negative hormone receptor-positive metastatic breast cancer; assay: AIPAC Phase IIb study: progression-free survival (PFS); details: investigator read; for PFS absolute gain / PFS Hazard Ratio: vs paclitaxel + placebo
Description: as §1, §2, §3, §4, §5
as §4, with “(placebo)” for “(IMP321)”
Primary Outcome Measures: • 1. Stage 1 to determine the recommended phase two dose (RPTD) for the randomised phase • 2. Assessment of Progression-Free Survival (PFS)

B1: IMP321: recombinant soluble human LAG-3Ig fusion protein, 160-kDa dimer: extracellular domain of hLAG-3 fused to the human IgG1 Fc (protein)
chain: LQPGAEVPVVWAQEGAPAQLPCSPTIPLQDLSLLRRAGVTWQHQPDSGPPAAAPGHPLAPGPHPAAPSSWGPRPRRYTVLSVGPGGLRSGRLPLQPRVQLDERGRQRGDFSLWLRPARRADAGEYRAAVHLRDRALSCRLRLRLGQASMTASPPGSLRASDWVILNCSFSRPDRPASVHWFRNRGQGRVPVRESPHHHLAESFLFLPQVSPMDSGPWGCILTYRDGFNVSIMYNLTVLGLEPPTPLTVYAGAGSRVGLPCRLPAGVGTRSFLTAKWTPPGGGPDLLVTGDNGDFTLRLEDVSQAQAGTYTCHIHLQEQQLNATVTLAIITVTPKSFGSPGSLGKLLCEVTPVSGQERFVWSSLDTPSQRSFSGPWLEAQEAQLLSQPWQCQLYQGERLLGAAVYFTELSSPG
modifications: left off: small tags and cut ends; a dimerising Fc or GST
notes: recombinant soluble human LAG-3Ig fusion protein, 160-kDa dimer: extracellular domain of hLAG-3 fused to the human IgG1 Fc
safety ([1]; doses of 6-30 mg per s.c. injection): safe | dose limiting toxicity ([1]; to date): No dose limiting toxicity has been observed | Median OS ([2]; Luminal B type, investigator read): 16.3 months | OS absolute gain ([2]; Luminal B type, investigator read, vs paclitaxel + placebo): +3.8 months | Median OS ([2]; age < 65 years, investigator read): 21.9 months | OS absolute gain ([2]; age < 65 years, investigator read, vs paclitaxel + placebo): +7.1 months | OS Hazard Ratio [95% CI] ([2]; entire patient population, investigator read, vs paclitaxel + placebo): 0.83 | gain in median OS ([2]; entire patient population, vs paclitaxel + placebo): 2.7 months | Median OS ([2]; low (<0.25 × 10^9/L) monocytes at baseline, investigator read): 22.4 months | OS absolute gain ([2]; low monocytes at baseline, investigator read, vs paclitaxel + placebo): +9.4 months | Median OS ([2]; with prior CDK4/6 therapy, investigator read): 20.2 months | OS Hazard Ratio ([2]; with prior CDK4/6 therapy, investigator read, vs paclitaxel + placebo): HR 0.84 | Median OS ([2]; without prior taxane therapy, investigator read): 21.4 months | OS Hazard Ratio ([2]; without prior taxane therapy, investigator read, vs paclitaxel + placebo): HR 0.69 | deterioration in Quality of Life (QoL) [3]: not observed | systemic exposure ([4]; doses of 6-30 mg per s.c. injection, metastatic renal cell cancer patients): acceptable systemic exposure | blood concentration of IMP321 ([4]; for at least 24 hours after s.c. injection, doses of more than 6 mg): > 1 ng/mL | Progressive disease [5]: fewer patients with immediate progression | PFS median ([6]; Luminal B type): 7.2 months | PFS absolute gain ([6]; Luminal B type): +1.7 months | Median PFS ([6]; age < 65 years): 7.2 months | PFS absolute gain ([6]; age < 65 years): +1.7 months | PFS median ([6]; low (<0.25 × 10^9/L) monocytes at baseline): 7.5 months | PFS absolute gain ([6]; low monocytes at baseline): +2.3 months | Median PFS ([6]; with prior CDK4/6 therapy): 5.6 months | PFS Hazard Ratio ([6]; with prior CDK4/6 therapy): HR 1.02 | PFS absolute gain ([6]; with prior CDK4/6 therapy): −1.1 months | Median PFS ([6]; without prior taxane therapy): 7.2 months | PFS Hazard Ratio ([6]; without prior taxane therapy): HR 0.88 | PFS absolute gain ([6]; without prior taxane therapy): +1.7 months
